# Data taken from patent US20240117018A1.
# Tests used:
# Assay in all cases: cell-based or functional assay
# [1] = molecular target: HIV-1 Env of pseudovirus 3016.v5.c45 (HIV-1)
# [2] = molecular target: HIV-1 Env of pseudovirus C4118.c09 (HIV-1)
# [3] = molecular target: HIV-1 Env of pseudovirus 231966.c02 (HIV-1)
# [4] = molecular target: HIV-1 Env of pseudovirus X1193_c1 (HIV-1)
# [5] = molecular target: HIV-1 Env of pseudovirus P1981_C5_3 (HIV-1)
# [6] = molecular target: HIV-1 Env of pseudovirus BJOX025000.01.1 (HIV-1)
# [7] = molecular target: HIV-1 Env of pseudovirus BJOX009000.02.4 (HIV-1)
# [8] = molecular target: HIV-1 Env of pseudovirus X2131_C1_B5 (HIV-1)
# [9] = molecular target: HIV-1 Env of pseudovirus R1166.c01 (HIV-1)
# [10] = molecular target: HIV-1 Env of pseudovirus X1632_S2_B10 (HIV-1)
# [11] = molecular target: HIV-1 Env of pseudovirus 235-47 (HIV-1)
# [12] = molecular target: HIV-1 Env of pseudovirus 620345.c01 (HIV-1)
# [13] = molecular target: HIV-1 Env of pseudovirus C3347.c11 (HIV-1)
# [14] = molecular target: HIV-1 Env of pseudovirus 3817.v2.c59 (HIV-1)
# [15] = molecular target: HIV-1 Env of pseudovirus 6811.v7.c18 (HIV-1)
# [16] = molecular target: HIV-1 Env of pseudovirus 89-F1_2_25 (HIV-1)
# [17] = molecular target: HIV-1 Env of pseudovirus 211-9 (HIV-1)
# [18] = molecular target: HIV-1 Env of pseudovirus BJOX015000.11.5 (HIV-1)
# [19] = molecular target: HIV-1 Env of pseudovirus R2184.c04 (HIV-1)
# [20] = molecular target: HIV-1 Env of pseudovirus 6540.v4.c1 (HIV-1)
# [21] = molecular target: HIV-1 Env of pseudovirus T251-18 (HIV-1)
# [22] = molecular target: HIV-1 Env of pseudovirus C1080.c03 (HIV-1)
# [23] = molecular target: HIV-1 Env of pseudovirus 6545.v4.c1 (HIV-1)
# [24] = molecular target: HIV-1 Env of pseudovirus 231965.c01 (HIV-1)
# [25] = molecular target: HIV-1 Env of pseudovirus 6041.v3.c23 (HIV-1)
# [26] = molecular target: HIV-1 Env of pseudovirus 3301.v1.c24 (HIV-1)
# [27] = molecular target: HIV-1 Env of pseudovirus T255-34 (HIV-1)
# [28] = molecular target: HIV-1 Env of pseudovirus 6480.v4.c25 (HIV-1)
# [29] = molecular target: HIV-1 Env of pseudovirus 3103.v3.c10 (HIV-1)
# [30] = molecular target: HIV-1 Env of pseudovirus BJOX028000.10.3 (HIV-1)
# [31] = molecular target: HIV-1 Env of pseudovirus 6952.v1.c20 (HIV-1)
substance,measurement,setting,value
10E8 (antibody),IC50 neutralization (TZM.bl),[1],0.476 µg/mL
same,IC80 neutralization (TZM.bl),[1],4.39 µg/mL
same,IC50 neutralization (TZM.bl),[2],1.62 µg/mL
same,IC80 neutralization (TZM.bl),[2],9.06 µg/mL
same,IC50 neutralization (TZM.bl),[3],0.191 µg/mL
same,IC80 neutralization (TZM.bl),[3],3.13 µg/mL
same,IC50 neutralization (TZM.bl),[4],0.497 µg/mL
same,IC80 neutralization (TZM.bl),[4],4.2 µg/mL
same,IC50 neutralization (TZM.bl),[5],0.057 µg/mL
same,IC80 neutralization (TZM.bl),[5],0.285 µg/mL
same,IC50 neutralization (TZM.bl),[6],0.107 µg/mL
same,IC80 neutralization (TZM.bl),[6],6.33 µg/mL
same,IC50 neutralization (TZM.bl),[7],1.57 µg/mL
same,IC80 neutralization (TZM.bl),[7],9.95 µg/mL
same,IC50 neutralization (TZM.bl),[8],0.189 µg/mL
same,IC80 neutralization (TZM.bl),[8],0.974 µg/mL
same,IC50 neutralization (TZM.bl),[9],0.274 µg/mL
same,IC80 neutralization (TZM.bl),[9],2.61 µg/mL
same,IC50 neutralization (TZM.bl),[10],1.98 µg/mL
same,IC80 neutralization (TZM.bl),[10],9.68 µg/mL
same,IC50 neutralization (TZM.bl),[11],0.384 µg/mL
same,IC80 neutralization (TZM.bl),[11],2.07 µg/mL
same,IC50 neutralization (TZM.bl),[12],0.455 µg/mL
same,IC80 neutralization (TZM.bl),[12],6 µg/mL
same,IC50 neutralization (TZM.bl),[13],0.016 µg/mL
same,IC80 neutralization (TZM.bl),[13],0.167 µg/mL
same,IC50 neutralization (TZM.bl),[14],1.18 µg/mL
same,IC80 neutralization (TZM.bl),[14],5.98 µg/mL
same,IC50 neutralization (TZM.bl),[15],7.54 µg/mL
same,IC80 neutralization (TZM.bl),[15],> 10 µg/mL
same,IC50 neutralization (TZM.bl),[16],1.11 µg/mL
same,IC80 neutralization (TZM.bl),[16],10 µg/mL
same,IC50 neutralization (TZM.bl),[17],1.09 µg/mL
same,IC80 neutralization (TZM.bl),[17],6.51 µg/mL
same,IC50 neutralization (TZM.bl),[18],0.051 µg/mL
same,IC80 neutralization (TZM.bl),[18],1.91 µg/mL
same,IC50 neutralization (TZM.bl),[19],0.272 µg/mL
same,IC80 neutralization (TZM.bl),[19],2.46 µg/mL
same,IC50 neutralization (TZM.bl),[20],1.9 µg/mL
same,IC80 neutralization (TZM.bl),[20],10 µg/mL
same,IC50 neutralization (TZM.bl),[21],2.36 µg/mL
same,IC80 neutralization (TZM.bl),[21],> 10 µg/mL
same,IC50 neutralization (TZM.bl),[22],0.061 µg/mL
same,IC80 neutralization (TZM.bl),[22],0.731 µg/mL
same,IC50 neutralization (TZM.bl),[23],1.78 µg/mL
same,IC80 neutralization (TZM.bl),[23],8.23 µg/mL
same,IC50 neutralization (TZM.bl),[24],> 10 µg/mL
same,IC80 neutralization (TZM.bl),[24],> 10 µg/mL
same,IC50 neutralization (TZM.bl),[25],2.33 µg/mL
same,IC80 neutralization (TZM.bl),[25],9.77 µg/mL
same,IC50 neutralization (TZM.bl),[26],4.63 µg/mL
same,IC80 neutralization (TZM.bl),[26],> 10 µg/mL
same,IC50 neutralization (TZM.bl),[27],0.778 µg/mL
same,IC80 neutralization (TZM.bl),[27],4.21 µg/mL
same,IC50 neutralization (TZM.bl),[28],8.08 µg/mL
same,IC80 neutralization (TZM.bl),[28],> 10 µg/mL
same,IC50 neutralization (TZM.bl),[29],> 10 µg/mL
same,IC80 neutralization (TZM.bl),[29],> 10 µg/mL
same,IC50 neutralization (TZM.bl),[30],0.665 µg/mL
same,IC80 neutralization (TZM.bl),[30],7.36 µg/mL
same,IC50 neutralization (TZM.bl),[31],0.343 µg/mL
same,IC80 neutralization (TZM.bl),[31],1.91 µg/mL
